Measured values published in patent US20240016931A1 (JIANGSU HENGRUI PHARMACEUTICALS, published 2024).

Columns and labels:
[1] = biological target: T1, Fc-tagged human TSLP antigen (huTSLP-Fc) (human, biotin-labeled in the blocking assays); assay: competition ELISA: blocks TSLP binding to TSLP receptor
T1 construct: whole entry named; also called recombinant human TSLP-Fc

[2] = biological target: T2, His-tagged human TSLP antigen (huTSLP-his) (human); assay: ELISA, coated huTSLP-his;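 note: binding of antibodies to plate-bound TSLP read as absorbance at 450 nm after TMB colour development, EC50 derived from binding curves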
T2 construct: Secreted from HEK293E and purified on nickel; whole entry named; also called Human TSLP-his

[3] = biological target: T3, His-tagged cynomolgus monkey TSLP antigen (cynoTSLP-His) (cynomolgus monkey); assay: Biacore T200, antibody captured on Protein A chip, antigen in flow, 1:1 Langmuir
T3 construct: whole entry named
T3 chain: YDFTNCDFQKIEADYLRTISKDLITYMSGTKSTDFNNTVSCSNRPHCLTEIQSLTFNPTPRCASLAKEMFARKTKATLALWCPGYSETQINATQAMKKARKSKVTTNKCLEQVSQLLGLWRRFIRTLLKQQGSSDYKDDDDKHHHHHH

[4] = biological target: T2, His-tagged human TSLP antigen …; assay: as above
[5] = biological target: T1, Fc-tagged human TSLP antigen (huTSLP-Fc); assay: competition ELISA: biotin-huTSLP-Fc binding to coated human-TSLPR-Fc-ECD
[6] = biological target: T1, Fc-tagged human TSLP antigen (huTSLP-Fc); assay: competition FACS: biotin-TSLP-Fc binding to CHOK1-TSLPR/IL-7R cells
[7] = biological target: T1, Fc-tagged human TSLP antigen (huTSLP-Fc); assay: cell-based or functional assay
native TSLP = native TSLP (human, UniProt Q969D9 29-159); assay: cell-based or functional assay

B1: Ch199 (antibody, human IgG1, kappa, V domains shown)
VH: QVQLQQSGPQLVRPGASVKISCKASGYSFTTYWMHWVKQRPGQGLEWIGMIDPSDSETTLIQKFKDKATLTVDKSSSTAYMQLSSPTSEDSAVYYCARTLDGYYDYWGQGTTLTVSS
VL: DIQMTQSPASLSASVGETVTITCRASENIYSYLAWYQQKQGKSPQLLVYFAKTLAEGVPSRFSGSVSGTQFSLKINSLQPEDFGSYYCQHHYGTPWTFGGGTKLEIKR
notes: murine variable regions on human IgG1-YTE / kappa; also called Chi 99; chimeric antibody corresponding to mab199
- IC50 [1]: 427 pM
- EC50 [2]: 516 pM

B2: hu199-23 (antibody, human IgG1, kappa, V domains shown)
VH: EVQLVQSGAEVKKPGASVKVSCKASGYTFTTYWMHWVKQAPGQGLEWIGMIDPSDSETTLIQKFKDKATLTVDKSTSTAYMELSSLRSEDTAVYYCARTLDGYYDYWGQGTTVTVSS
VL: DIQMTQSPSSLSASVGDRVTITCRASENIYSYLAWYQQKPGKAPKLLVYFAKTLAEGVPSRFSGSVSGTDFTLTISSLQPEDFATYYCQHHYGTPWTFGGGTKVEIKR
notes: IgG1-YTE, kappa
- IC50 [1]: 337 pM

B3: hu199-35 (antibody, human IgG1, kappa, V domains shown)
VH: EVQLVQSGAEVKKPGASVKVSCKASGYTFTTYWMHWVKQAPGQGLEWMGMIDPSDSETTLIQKFKDKVTLTVDKSTSTAYMELSSLRSEDTAVYYCARTLDGYYDYWGQGTTVTVSS
VL: DIQMTQSPSSLSASVGDRVTITCRASENIYSYLAWYQQKPGKAPKLLVYFAKTLAEGVPSRFSGSVSGTDFTLTISSLQPEDFATYYCQHHYGTPWTFGGGTKVEIKR
notes: IgG1-YTE, kappa
- IC50 [1]: 485 pM

B4: hu199-34 (antibody, human IgG1, kappa, V domains shown)
VH: EVQLVQSGAEVKKPGASVKVSCKASGYTFTTYWMHWVKQAPGQGLEWMGMIDPSDSETTLIQKFKDKVTLTVDKSTSTAYMELSSLRSEDTAVYYCARTLDGYYDYWGQGTTVTVSS
VL: DIQMTQSPSSLSASVGDRVTITCRASENIYSYLAWYQQKPGKAPKLLIYFAKTLAEGVPSRFSGSVSGTDFTLTISSLQPEDFATYYCQHHYGTPWTFGGGTKVEIKR
notes: IgG1-YTE, kappa
- IC50 [1]: 711 pM

B5: hu199-33 (antibody, human IgG1, kappa, V domains shown)
VH: EVQLVQSGAEVKKPGASVKVSCKASGYTFTTYWMHWVKQAPGQGLEWMGMIDPSDSETTLIQKFKDKVTLTVDKSTSTAYMELSSLRSEDTAVYYCARTLDGYYDYWGQGTTVTVSS
VL: DIQMTQSPSSLSASVGDRVTITCRASENIYSYLAWYQQKPGKSPQLLVYFAKTLAEGVPSRFSGSGSGTQFTLTISSLQPEDFATYYCQHHYGTPWTFGGGTKVEIKR
notes: IgG1-YTE, kappa
- IC50 [1]: 206 pM

B6: hu199-30 (antibody, human IgG1, kappa, V domains shown)
VH: EVQLVQSGAEVKKPGASVKVSCKASGYTFTTYWMHWVKQAPGQGLEWMGMIDPSDSETTLIQKFKDKVTMTVDKSTSTAYMELSSLRSEDTAVYYCARTLDGYYDYWGQGTTVTVSS
VL: DIQMTQSPSSLSASVGDRVTITCRASENIYSYLAWYQQKPGKSPQLLVYFAKTLAEGVPSRFSGSVSGTQFTLTISSLQPEDFATYYCQHHYGTPWTFGGGTKVEIKR
notes: IgG1-YTE, kappa
- IC50 [1]: 349 pM

B7: hu199-27 (antibody, human IgG1, kappa, V domains shown)
VH: EVQLVQSGAEVKKPGASVKVSCKASGYTFTTYWMHWVKQAPGQGLEWMGMIDPSDSETTLIQKFKDKVTMTVDKSTSTAYMELSSLRSEDTAVYYCARTLDGYYDYWGQGTTVTVSS
VL: DIQMTQSPSSLSASVGDRVTITCRASENIYSYLAWYQQKPGKSPQLLVYFAKTLAEGVPSRFSGSGSGTQFTLTISSLQPEDFATYYCQHHYGTPWTFGGGTKVEIKR
notes: IgG1-YTE, kappa
- IC50 [1]: 354 pM

B8: hu199-36 (antibody, human IgG1, kappa, V domains shown)
VH: EVQLVQSGAEVKKPGASVKVSCKASGYTFTTYWMHWVKQAPGQGLEWMGMIDPSDSETTLIQKFKDKVTLTVDKSTSTAYMELSSLRSEDTAVYYCARTLDGYYDYWGQGTTVTVSS
VL: DIQMTQSPSSLSASVGDRVTITCRASENIYSYLAWYQQKPGKSPQLLVYFAKTLAEGVPSRFSGSVSGTQFTLTISSLQPEDFATYYCQHHYGTPWTFGGGTKVEIKR
notes: IgG1-YTE, kappa
- Kd [3]: 17.2 pM
- Kd [4]: 10.5 pM
- IC50 [5]: 569 pM
- IC50 [6]: 227 pM
- IC50 (nM), inhibition of TSLP-induced proliferation of BaF3 cells overexpressing TSLPR/IL-7R [7]: 0.477 nM
- IC50 [1]: 727 pM

B9: hu199-26 (antibody, human IgG1, kappa, V domains shown)
VH: EVQLVQSGAEVKKPGASVKVSCKASGYTFTTYWMHWVKQAPGQGLEWMGMIDPSDSETTLIQKFKDKVTMTVDKSTSTAYMELSSLRSEDTAVYYCARTLDGYYDYWGQGTTVTVSS
VL: DIQMTQSPSSLSASVGDRVTITCRASENIYSYLAWYQQKPGKAPKLLVYFAKTLAEGVPSRFSGSGSGTDFTLTISSLQPEDFATYYCQHHYGTPWTFGGGTKVEIKR
notes: IgG1-YTE, kappa
- IC50 [1]: 365 pM

B10: hu199-25 (antibody, human IgG1, kappa, V domains shown)
VH: EVQLVQSGAEVKKPGASVKVSCKASGYTFTTYWMHWVKQAPGQGLEWMGMIDPSDSETTLIQKFKDKVTMTVDKSTSTAYMELSSLRSEDTAVYYCARTLDGYYDYWGQGTTVTVSS
VL: DIQMTQSPSSLSASVGDRVTITCRASENIYSYLAWYQQKPGKAPKLLIYFAKTLAEGVPSRFSGSGSGTDFTLTISSLQPEDFATYYCQHHYGTPWTFGGGTKVEIKR
notes: IgG1-YTE, kappa
- IC50 [1]: 246 pM

B11: hu199-29 (antibody, human IgG1, kappa, V domains shown)
VH: EVQLVQSGAEVKKPGASVKVSCKASGYTFTTYWMHWVKQAPGQGLEWMGMIDPSDSETTLIQKFKDKVTMTVDKSTSTAYMELSSLRSEDTAVYYCARTLDGYYDYWGQGTTVTVSS
VL: DIQMTQSPSSLSASVGDRVTITCRASENIYSYLAWYQQKPGKAPKLLVYFAKTLAEGVPSRFSGSVSGTDFTLTISSLQPEDFATYYCQHHYGTPWTFGGGTKVEIKR
notes: IgG1-YTE, kappa
- IC50 [1]: 554 pM

B12: hu199-31 (antibody, human IgG1, kappa, V domains shown)
VH: EVQLVQSGAEVKKPGASVKVSCKASGYTFTTYWMHWVKQAPGQGLEWMGMIDPSDSETTLIQKFKDKVTLTVDKSTSTAYMELSSLRSEDTAVYYCARTLDGYYDYWGQGTTVTVSS
VL: DIQMTQSPSSLSASVGDRVTITCRASENIYSYLAWYQQKPGKAPKLLIYFAKTLAEGVPSRFSGSGSGTDFTLTISSLQPEDFATYYCQHHYGTPWTFGGGTKVEIKR
notes: IgG1-YTE, kappa
- IC50 [1]: 304 pM

B13: hu199-28 (antibody, human IgG1, kappa, V domains shown)
VH: EVQLVQSGAEVKKPGASVKVSCKASGYTFTTYWMHWVKQAPGQGLEWMGMIDPSDSETTLIQKFKDKVTMTVDKSTSTAYMELSSLRSEDTAVYYCARTLDGYYDYWGQGTTVTVSS
VL: DIQMTQSPSSLSASVGDRVTITCRASENIYSYLAWYQQKPGKAPKLLIYFAKTLAEGVPSRFSGSVSGTDFTLTISSLQPEDFATYYCQHHYGTPWTFGGGTKVEIKR
notes: IgG1-YTE, kappa
- IC50 [1]: 462 pM

B14: hu199-24 (antibody, human IgG1, kappa, V domains shown)
VH: EVQLVQSGAEVKKPGASVKVSCKASGYTFTTYWMHWVKQAPGQGLEWIGMIDPSDSETTLIQKFKDKATLTVDKSTSTAYMELSSLRSEDTAVYYCARTLDGYYDYWGQGTTVTVSS
VL: DIQMTQSPSSLSASVGDRVTITCRASENIYSYLAWYQQKPGKSPQLLVYFAKTLAEGVPSRFSGSVSGTQFTLTISSLQPEDFATYYCQHHYGTPWTFGGGTKVEIKR
notes: IgG1-YTE, kappa
- IC50 [1]: 496 pM

B15: hu199-32 (antibody, human IgG1, kappa, V domains shown)
VH: EVQLVQSGAEVKKPGASVKVSCKASGYTFTTYWMHWVKQAPGQGLEWMGMIDPSDSETTLIQKFKDKVTLTVDKSTSTAYMELSSLRSEDTAVYYCARTLDGYYDYWGQGTTVTVSS
VL: DIQMTQSPSSLSASVGDRVTITCRASENIYSYLAWYQQKPGKAPKLLVYFAKTLAEGVPSRFSGSGSGTDFTLTISSLQPEDFATYYCQHHYGTPWTFGGGTKVEIKR
notes: IgG1-YTE, kappa
- IC50 [1]: 287 pM

B16: hu3-13 (antibody, human IgG1, kappa, V domains shown)
VH: EVQLVQSGAEVKKPGASVKVSCKASGYTFTDDYMNWVRQAPGQRLEWMGIISPYNGGTSYNQKFKGRVTLTVDKSASTAYMELSSLRSEDTAVYYCAREDYDYDGYAMDYWGQGTTVTVSS
VL: EIVLTQSPATLSLSPGERATLSCRASSSVSYMHWYQQKPGQAPRPWIYATSNLASGVPARFSGSGSGTSYTLTISRLEPEDFAVYYCQQSDSGREFGGGTKVEIKR
notes: IgG1-YTE, kappa; also called hu3VH2-H110Y + hu3VL6
- IC50 (nM), inhibition of native TSLP-induced proliferation of BaF3-TLSPR/IL-7R cells (native TSLP): 0.289 nM
- Kd [3]: 340 pM
- Kd [4]: 1 pM
- IC50 [5]: 498 pM
- IC50 [6]: 132 pM
- IC50 (nM), inhibition of TSLP-induced proliferation of BaF3 cells overexpressing TSLPR/IL-7R [7]: 0.444 nM
- EC50 [2]: 148 pM

B17: hu119-30 (antibody, human IgG1, kappa, V domains shown)
VH: EAQLVQSGAEVKKPGSSVKVSCKASGFTFSTYNMHWVRQAPGQGLEWIGAIYPGNGETSYNQKFKDRATLTVDKSTRTAYMELSSLRSEDTAVYYCAREDDYGEGYFDVWGQGTTVTVSS
VL: DIVLTQSPATLSLSPGERATLSCRASESVDSSGLSFMHWYQQKPGQPPRLLLYRASNLGSGIPARFSGSGSGTDFTLTISSLEPEDFAVYYCQQINTDPLTFGQGTKLEIKR
notes: IgG1-YTE, kappa; also called hu119VH8 + hu119VL6-N31S
- IC50 (nM), inhibition of native TSLP-induced proliferation of BaF3-TLSPR/IL-7R cells (native TSLP): 1.53 nM
- Kd [3]: 1950 pM
- Kd [4]: 5 pM
- IC50 [5]: 519 pM
- IC50 [6]: 137 pM
- IC50 (nM), inhibition of TSLP-induced proliferation of BaF3 cells overexpressing TSLPR/IL-7R [7]: 0.43 nM
